# Data: IntAct's records for PubMed 17166838
# B1: Huntingtin-associated protein 1 (Rattus norvegicus (Rat)), P54256-2 (parent)
# chain: MRPKDQVQSSAGDGTGSGDPATGTPTTQPAADPAPEPSAEPKPAPAQGTGSGQKSGSRTKTGGSFCRSRIRGDSDAPWTRYIFQGPYGPRATGLGTGRAEGIWKTPAAYIGRRPGVSGPERAAFIRELQEALCPNPLPRKKITEDDIKVMLYLLEEKERDLNTAARIGQSLVKQNSVLMEENNKLETMLGSAREEILHLRKQVNLRDDLLQLYSDSDDDEEDEEDEEEEEGEEEEREGQRDQDQQHDHPYGAPKPPPKAETLHHCPQLEALKQKLKLLEEENDHLREEASHLDNLEDKEQMLILECVEQFSEASQQMAELSEVLVLRLEGYERQQKEITQLQAEITKLQQRCQSYGAQTEKLQQQLASEKGVHPESLRAGSHMQDYGSRPRERQEDGKSHRQRSSMPAGSVTHYGYSVPLDALPSFPETLAEELRTSLRKFITDPAYFMERCDTRCREERKKEQGTMPPPPVQDLKPPEDFEAPEELVPEEELGAIEEVGTAEDGPAEETEQASEETEAWEEVEPEVDEATRMNVVVSALEASGLGPSHLDMKYVLQQLSNWQDAHSKRQQKQKVVPKGECSRRGHPPASGTSYRSSTL
# Variants of: B1
# Settings: with 1433z_human YWHAZ
row,effect of a mutation on the interaction,Variant
1,disrupting interaction,T598A
